The Human Domainome abundance scans (Beltran et al. 2025)

B1: Arginine-glutamic acid dipeptide repeats protein, residues 502 to 543; numbered along this chain, Q9P2R6 (parent)
chain: LKGYACRHCFTTTSKDWHHGGRENILLCTDCRIHFKKYGELP

Variants of: B1
Assay: abundance fitness (aPCA) (normalised: wild type 0, dead -1); higher = more abundant; growth selection in yeast, the domain comes from the species named
Conditions: Homo sapiens

Abundance fitness: each site, then its substitutions
L1: W -0.187 | T 0.066 | R -0.083 | G 0.043
R7: L -0.067 | Q 0.036 | V -0.098 | Y -0.056 | P -0.293 | D -0.142 | A 0.074 | S 0.021
H8: E -0.348 | N 0.064 | F -0.387 | Q -0.307 | W -0.044 | I -0.292 | P -0.836 | L -0.489 | G -0.222 | C -0.259
I33: W -0.059 | S 0.017 | Q 0.074 | D 0.117 | Y -0.01 | L 0.074 | M -0.007
D16: C -0.633 | E -0.15 | A -0.358 | H -0.501 | N -0.277 | M -0.397 | W -0.515 | G -0.342 | T -0.391 | Q -0.449 | L -0.442
R22: I -0.157 | N 0.008 | M -0.172 | V -0.039 | F -0.058 | L -0.081 | T 0.011 | K 0.071 | H -0.221
T11: F -0.561 | V -0.195 | S -0.083 | R -0.236 | M -0.413 | Q -0.278 | G -0.241
L41: Y -0.22 | W -0.302 | E -0.301 | H -0.416 | A -0.317 | M -0.126 | G -0.276 | F 0.271 | S -0.325 | Q -0.327 | V -0.246 | K -0.309
H34: L -0.282 | Q -0.098 | E -0.242 | Y -0.102 | W -0.001 | M -0.204 | V -0.3 | F -0.218 | S -0.04 | D -0.32 | R -0.258
G20: V -0.11 | A -0.16 | S -0.212 | I -0.151 | C -0.091 | Y -0.422 | H -0.203
C6: S -0.939 | Q -0.894 | K -0.886 | E -0.702 | V -1.12
K37: E -0.04 | C -0.168 | Q -0.027 | V -0.149 | L -0.194 | R -0.026 | G -0.184 | T -0.032 | A -0.034
R32: W 0.053 | F 0.021 | V -0.14 | P -0.612 | A -0.011 | Q -0.035 | M -0.017 | C -0.114
T29: Y 0.02 | G -0.13 | A -0.067 | D -0.151 | H -0.474 | P -0.347 | W -0.042 | M -0.192 | V -0.154
F35: L -0.057 | W 0.001 | G -0.287 | M -0.163 | A -0.089
F10: N -0.238 | K 0.017 | W -0.054
D30: W -0.352 | K -0.098 | Q -0.07 | I -0.404 | P -0.058
T13: E 0.014 | C -0.164 | L -0.223 | R 0.012 | F -0.179 | W -0.31
K2: M -0.09 | D -0.004 | E -0.038 | V -0.023 | S -0.049 | F -0.078 | P -0.357 | G -0.12 | W -0.401 | A -0.116 | H -0.374
S14: E -0.223 | P -0.361 | L -0.536 | R -0.451 | D -0.073 | M -0.455 | W -0.657 | T -0.226
K15: P -0.095 | H -0.041 | V -0.091 | Q -0.049 | A -0.107 | W -0.489 | G -0.174 | M -0.064
L26: R -0.2 | Q -0.376 | V -0.18 | P -0.21 | Y -0.403 | K -0.268 | H -0.386 | W -0.188 | I 0.004 | G -0.307 | F -0.354 | A -0.311
W17: V -0.157 | A -0.191 | T -0.227 | C -0.295 | L -0.186
P42: E -0.3 | G -0.519 | L -0.491 | Q -0.349
G3: K -0.146 | C -0.226 | Q -0.373 | E -0.2 | F -0.247 | Y -0.205 | L -0.205 | T -0.093 | S -0.107
H18: K 0.055 | L -0.042 | R -0.193 | A 0.09 | S 0.004 | W -0.21 | Y -0.089 | T -0.029
Y4: R -0.155 | W -0.22 | T -0.074 | M 0.046 | E -0.135 | H -0.084 | F -0.032 | D -0.037 | G -0.207
N24: E -0.105 | R -0.146 | S 0 | W -0.189 | L -0.191 | G -0.026 | M -0.107 | K -0.157 | P -0.261 | A -0.146
L27: I -0.172 | P -0.396 | A -0.405 | W -0.259 | R -0.554 | V -0.276 | T -0.294 | Q -0.498 | K -0.511 | E -0.318 | F -0.444
K36: C -0.134 | G 0.079 | N 0.248 | R -0.029 | A 0.081 | E -0.012 | P -0.363 | S 0.008
E23: Y -0.489 | H -0.185 | C -0.159 | T -0.104 | D 0.011 | K -0.136 | S -0.174 | R -0.255
C9: K -0.371 | A -0.425 | T -0.44 | W -0.645 | P -0.494 | N -0.271 | D -0.547 | M -0.542 | V -0.451 | L -0.517
C31: P -1.07 | Q -1.14 | Y -0.911 | K -0.732 | L -1.1 | W -1.33 | D -0.527
G39: I -0.726 | F -0.393 | V -0.42 | N 0.027 | M -0.328 | Y -0.259
G21: I -0.517 | E -0.154 | D -0.236 | M -0.291 | Q -0.222 | H -0.044
T12: G -0.312 | N -0.251 | Y -0.549 | C -0.304 | V -0.343 | L -0.338 | D -0.141 | R -0.141
I25: H -0.169 | P -0.141 | Y -0.187 | C -0.258 | G -0.264 | F -0.213 | M -0.15 | L -0.05 | S -0.185 | D -0.16 | A -0.122
A5: P -0.335 | S 0.007 | N -0.116 | D -0.022 | W 0.014 | F 0.144 | H 0.044 | Y -0.136 | R 0.012
Y38: M -0.117 | G -0.185 | W -0.074 | D -0.114 | K -0.002 | T 0.123 | F -0.069 | R -0.084
C28: V -0.851 | K -0.841 | G -0.798 | A -0.873 | H -0.872 | F -0.789 | S -0.789 | Y -0.617
E40: Y -0.143 | Q -0.012 | V -0.036 | D -0.101 | F -0.472 | L -0.122 | W -0.265 | T -0.078 | A -0.066
H19: C -0.033 | F -0.064 | M 0.008 | R -0.047 | D -0.225
